The values that follow come from US7147850.

Test [1] concerns the target MUC-1 on ZR-75-1 cells deglycosylated with 4 mM Phenyl-N-alpha-D-Glucosamide (unglycosylated MUC-1) (human) (UniProt P15941). Nature of the test: FACScan on deglycosylated ZR-75-1 cells (PBS control 6.76).
The target in test [2] is MUC-1 glycoprotein on untreated ZR-75-1 cells (glycosylated MUC-1) (human) (UniProt P15941). As to the kind of experiment: FACScan on untreated ZR-75-1 cells (PBS control 6.23).
Sequence of MUC-1 glycoprotein on untreated ZR-75-1 cells (glycosylated MUC-1) (human) (P15941 24-1255): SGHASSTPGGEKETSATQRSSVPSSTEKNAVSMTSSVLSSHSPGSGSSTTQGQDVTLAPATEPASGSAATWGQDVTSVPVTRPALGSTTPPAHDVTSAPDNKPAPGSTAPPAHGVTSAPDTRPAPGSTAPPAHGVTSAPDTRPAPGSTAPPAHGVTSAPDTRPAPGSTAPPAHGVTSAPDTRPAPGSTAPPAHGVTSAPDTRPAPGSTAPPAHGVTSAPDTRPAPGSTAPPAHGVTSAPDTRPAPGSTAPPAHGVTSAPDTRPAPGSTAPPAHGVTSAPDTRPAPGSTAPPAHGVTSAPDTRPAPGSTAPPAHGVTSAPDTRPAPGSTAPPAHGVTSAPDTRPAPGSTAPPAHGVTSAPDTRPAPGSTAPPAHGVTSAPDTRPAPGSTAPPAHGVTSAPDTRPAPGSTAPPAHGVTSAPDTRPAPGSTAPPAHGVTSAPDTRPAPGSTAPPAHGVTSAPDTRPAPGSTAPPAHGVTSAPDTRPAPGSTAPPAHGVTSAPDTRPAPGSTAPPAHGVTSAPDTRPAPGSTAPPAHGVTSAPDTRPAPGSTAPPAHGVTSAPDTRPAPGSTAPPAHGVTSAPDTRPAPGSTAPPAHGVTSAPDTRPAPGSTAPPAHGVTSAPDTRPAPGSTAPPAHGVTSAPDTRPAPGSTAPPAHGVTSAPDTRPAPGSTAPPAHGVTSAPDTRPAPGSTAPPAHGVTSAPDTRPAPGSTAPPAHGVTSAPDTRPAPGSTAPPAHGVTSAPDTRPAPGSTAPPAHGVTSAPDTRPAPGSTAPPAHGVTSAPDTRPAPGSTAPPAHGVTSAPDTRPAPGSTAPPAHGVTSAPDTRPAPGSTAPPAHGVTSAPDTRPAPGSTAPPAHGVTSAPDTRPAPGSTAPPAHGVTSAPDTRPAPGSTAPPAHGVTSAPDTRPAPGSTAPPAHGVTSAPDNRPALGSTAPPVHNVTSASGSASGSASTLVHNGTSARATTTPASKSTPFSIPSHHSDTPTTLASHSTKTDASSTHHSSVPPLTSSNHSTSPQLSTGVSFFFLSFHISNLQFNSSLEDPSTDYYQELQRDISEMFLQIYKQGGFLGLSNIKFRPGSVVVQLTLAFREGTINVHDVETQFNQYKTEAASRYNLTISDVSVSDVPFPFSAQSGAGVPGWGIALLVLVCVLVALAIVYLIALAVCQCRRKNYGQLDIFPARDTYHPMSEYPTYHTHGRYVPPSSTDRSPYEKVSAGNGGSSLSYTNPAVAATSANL

Sequence of MUC-1 on ZR-75-1 cells deglycosylated with 4 mM Phenyl-N-alpha-D-Glucosamide (unglycosylated MUC-1) (human) (P15941 24-1255, form in doubt): as the sequence (P15941 24-1255) above

As to SM3 (antibody), the % positive cells in test [1] worked out at 41.3%; in test [2], 7.49%.
